Experimental data reported in patent publication US20020102617.

Assays:
[1] = test system: Kemptide (a peptide substrate for PKA)
[2] = test system: Elk1
[3] = test system: protein phosphatase inhibitor 2 (I-2)

| Substance | phosphorylation (33P-γ-ATP, autoradiography emulsion on slide) [1] | phosphorylation (33P-γ-ATP, autoradiography emulsion on slide) [2] | phosphorylation (33P-γ-ATP, autoradiography emulsion on slide) [3] |
| --- | --- | --- | --- |
| casein kinase II (CKII) | only the specific substrates of these kinases (I-2 and Elk1, respectively) were phosphorylated (Kemptide not phosphorylated by CKII) | only the specific substrates of these kinases (I-2 and Elk1, respectively) were phosphorylated (Elk1 not phosphorylated by CKII) | only the specific substrates of these kinases (I-2 and Elk1, respectively) were phosphorylated |
| catalytic subunit of cAMP-dependent protein kinase (PKA) | only the substrate for PKA (Kemptide) was phosphorylated | only the substrate for PKA (Kemptide) was phosphorylated (Elk1 not phosphorylated) | only the substrate for PKA (Kemptide) was phosphorylated (I-2 not phosphorylated) |
| p42 MAP kinase (Erk2) | only the specific substrates of these kinases (I-2 and Elk1, respectively) were phosphorylated (Kemptide not phosphorylated by Erk2) | only the specific substrates of these kinases (I-2 and Elk1, respectively) were phosphorylated | only the specific substrates of these kinases (I-2 and Elk1, respectively) were phosphorylated (I-2 not phosphorylated by Erk2) |
